Experimental data reported in PMC3317646, “Interaction of Chandipura Virus N and P Proteins: Identification of Two Mutually Exclusive Domains of N Involved in Interaction with P” (PLoS ONE, 2012).

What was measured:
Conditions in all cases: both partners purified
[1] = biological target: T1, N(1–320), bacterially expressed (Chandipura virus, UniProt P11211 1-320); experiment: pull-down; His-tag co-elution after 1% DOC treatment of the N variants and dialysis against the binding buffer in presence of His-P (N variants monomeric); Ni-NTA agarose, eluted with 250 mM imidazole
T1 construct: Chandipura virus nucleocapsid protein N, residues 1-320; also called N(1–320)^0 (monomer after DOC treatment); source: E. coli BL21(DE3) or BL21(DE3)pLysS, purified (anion exchange, MonoQ 5/50 GL)
T1 sequence: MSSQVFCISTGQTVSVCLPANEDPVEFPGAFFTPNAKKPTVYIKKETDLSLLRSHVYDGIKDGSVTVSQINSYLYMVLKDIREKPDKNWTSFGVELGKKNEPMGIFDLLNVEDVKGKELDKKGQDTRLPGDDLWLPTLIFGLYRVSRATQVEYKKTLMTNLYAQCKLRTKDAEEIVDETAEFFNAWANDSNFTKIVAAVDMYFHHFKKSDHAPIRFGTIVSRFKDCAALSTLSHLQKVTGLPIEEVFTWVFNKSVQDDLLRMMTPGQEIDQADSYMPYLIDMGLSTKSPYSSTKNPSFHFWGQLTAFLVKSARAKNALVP

[2] = biological target: T2, N(1/180–265/422), bacterially expressed (Chandipura virus, UniProt P11211 1-422, N(1/180–265/422)); experiment: as above
T2 construct: also called middle deletant; source: E. coli BL21(DE3) or BL21(DE3)pLysS, purified (anion exchange, MonoQ 5/50 GL)
T2 sequence: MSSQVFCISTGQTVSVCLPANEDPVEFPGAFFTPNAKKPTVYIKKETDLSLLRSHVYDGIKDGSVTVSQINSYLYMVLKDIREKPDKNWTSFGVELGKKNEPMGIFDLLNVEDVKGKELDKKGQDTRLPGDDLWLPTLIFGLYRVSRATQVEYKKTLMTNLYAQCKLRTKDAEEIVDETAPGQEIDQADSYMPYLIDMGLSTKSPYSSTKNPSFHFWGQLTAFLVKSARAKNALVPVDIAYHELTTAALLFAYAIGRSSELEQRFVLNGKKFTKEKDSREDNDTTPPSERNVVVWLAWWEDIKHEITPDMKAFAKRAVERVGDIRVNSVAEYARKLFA

[3] = biological target: T3, N(48–422), bacterially expressed (Chandipura virus, UniProt P11211 48-422); experiment: pull-down; His-tag co-elution: N proteins not treated with DOC incubated with 6×His-P in 50 mM Tris-Cl pH 8, 100 mM NaCl, 0.1% Triton X-100, 10 mM imidazole, 30 min at 4°C; bound to Ni-NTA agarose, eluted with 250 mM imidazole
T3 construct: source: E. coli BL21(DE3) or BL21(DE3)pLysS, purified (anion exchange, MonoQ 5/50 GL)
T3 sequence: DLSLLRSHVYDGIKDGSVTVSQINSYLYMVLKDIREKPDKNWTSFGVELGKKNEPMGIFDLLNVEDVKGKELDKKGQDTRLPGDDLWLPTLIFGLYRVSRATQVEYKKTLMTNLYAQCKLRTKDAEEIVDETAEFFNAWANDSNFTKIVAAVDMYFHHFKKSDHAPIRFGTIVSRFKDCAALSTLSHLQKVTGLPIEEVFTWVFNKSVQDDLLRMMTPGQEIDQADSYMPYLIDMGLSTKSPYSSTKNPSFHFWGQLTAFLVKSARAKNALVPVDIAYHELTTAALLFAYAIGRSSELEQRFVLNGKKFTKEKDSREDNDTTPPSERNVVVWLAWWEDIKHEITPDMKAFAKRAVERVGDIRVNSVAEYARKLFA

[4] = biological target: T4, Chandipura virus nucleocapsid protein (N), wild-type, untagged, bacterially expressed (Chandipura virus, UniProt P11211 1-422); experiment: as above
T4 construct: Chandipura virus nucleocapsid protein N, full-length untagged (pET3a-NC); Oligomeric (nucleocapsid-like rings) as purified; monomeric after 1% DOC; also called CHPV N; wild-type N
T4 sequence: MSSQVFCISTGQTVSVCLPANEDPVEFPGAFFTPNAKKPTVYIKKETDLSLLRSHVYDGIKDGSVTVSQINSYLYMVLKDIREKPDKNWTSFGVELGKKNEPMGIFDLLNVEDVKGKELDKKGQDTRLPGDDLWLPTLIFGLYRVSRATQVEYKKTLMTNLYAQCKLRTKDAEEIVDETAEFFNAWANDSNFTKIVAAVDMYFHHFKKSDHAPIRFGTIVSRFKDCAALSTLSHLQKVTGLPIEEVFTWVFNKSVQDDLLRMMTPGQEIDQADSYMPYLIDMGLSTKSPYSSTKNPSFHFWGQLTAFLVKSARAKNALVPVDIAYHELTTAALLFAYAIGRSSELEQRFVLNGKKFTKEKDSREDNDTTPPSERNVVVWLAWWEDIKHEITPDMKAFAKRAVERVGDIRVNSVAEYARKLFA

[5] = biological target: T5, N(1–390), bacterially expressed (Chandipura virus, UniProt P11211 1-390); experiment: as above
T5 construct: Chandipura virus nucleocapsid protein N, residues 1-390; source: E. coli BL21(DE3) or BL21(DE3)pLysS, purified (anion exchange, MonoQ 5/50 GL)
T5 sequence: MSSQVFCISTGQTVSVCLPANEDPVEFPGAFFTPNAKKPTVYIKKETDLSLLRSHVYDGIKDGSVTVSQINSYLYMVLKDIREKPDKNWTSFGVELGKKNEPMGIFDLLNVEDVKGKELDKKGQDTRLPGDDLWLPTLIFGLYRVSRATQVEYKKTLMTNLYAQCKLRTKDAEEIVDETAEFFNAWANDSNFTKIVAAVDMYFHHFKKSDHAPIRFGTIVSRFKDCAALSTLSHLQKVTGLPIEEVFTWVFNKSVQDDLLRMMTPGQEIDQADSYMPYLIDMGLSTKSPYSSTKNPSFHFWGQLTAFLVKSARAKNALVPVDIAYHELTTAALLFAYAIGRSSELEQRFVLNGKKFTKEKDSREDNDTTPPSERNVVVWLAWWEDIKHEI

[6] = biological target: T6, N(22–422), bacterially expressed (Chandipura virus, UniProt P11211 22-422); experiment: as above
T6 construct: source: E. coli BL21(DE3) or BL21(DE3)pLysS, purified (anion exchange, MonoQ 5/50 GL)
T6 sequence: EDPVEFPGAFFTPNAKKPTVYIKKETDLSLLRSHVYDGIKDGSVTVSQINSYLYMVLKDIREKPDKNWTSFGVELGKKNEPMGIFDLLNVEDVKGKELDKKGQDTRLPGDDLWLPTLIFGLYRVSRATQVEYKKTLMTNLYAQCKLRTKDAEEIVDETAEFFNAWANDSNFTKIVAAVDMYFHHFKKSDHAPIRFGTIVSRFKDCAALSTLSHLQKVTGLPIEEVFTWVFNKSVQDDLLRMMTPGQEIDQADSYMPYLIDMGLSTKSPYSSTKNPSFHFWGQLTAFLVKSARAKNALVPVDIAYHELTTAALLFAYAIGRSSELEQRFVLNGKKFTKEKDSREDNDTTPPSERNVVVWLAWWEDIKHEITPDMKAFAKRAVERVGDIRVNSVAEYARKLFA

Measured: binding result

B1: N-terminal six histidine tagged P protein of Chandipura virus (His-P) (natural protein)
chain: MEDSQLYQALKNYPKLQDTLDSIENLEDDTKSEPSECGSPTERGIPSYYLAEELDECEEEDSEEDDDNLPTEIPDPPTVDMLEAIMEDEIDDTAYQVHFEAKQTWKPVIETGGNERGKFTLSVPQNLSALQLLQWETGIHALAERLGGCRLLQISTRGTRDGIEFTVRETPCVSPASDPIPSTSRSSSIASNVSTRQTESPGSKSNTSLGIPEAPANLIDMGAIDKEFILAAISPSDPPYKNTLRNLFGSGDSFEQYNQTGIYSLKELVIAGLKRKGIYNRIRIRCHLEPQFN
notes: Chandipura virus phosphoprotein P, full length (pET20b-P); pET20b usually adds a C-terminal His tag (surmise); also called 6×His-P; pET20b-P; source: bacterially expressed, purified (Ni-NTA agarose); not shown: His6, N-terminal, kept
binds: all assays above
